Experimental findings from patent US20070238638A1 (TANOX, published 2007) are described below.

In the test the target is T1, NFκB family member p65 (human, UniProt Q04206 1-551).
T1 construct: also called p65 NFκB protein
In words: EMSA gel supershift, HT29 nuclear extract on κB1 oligonucleotide. As for the experimental part: Gel supershift assays were performed as described above, except that antibodies specific for various promoter-binding proteins were added after the initial binding reaction and the mixture was incubated overnight at 4° C.
On the technique in general: In EMSA bound probe runs differently from free probe, usually more slowly.

T1 sequence (Q04206 whole entry): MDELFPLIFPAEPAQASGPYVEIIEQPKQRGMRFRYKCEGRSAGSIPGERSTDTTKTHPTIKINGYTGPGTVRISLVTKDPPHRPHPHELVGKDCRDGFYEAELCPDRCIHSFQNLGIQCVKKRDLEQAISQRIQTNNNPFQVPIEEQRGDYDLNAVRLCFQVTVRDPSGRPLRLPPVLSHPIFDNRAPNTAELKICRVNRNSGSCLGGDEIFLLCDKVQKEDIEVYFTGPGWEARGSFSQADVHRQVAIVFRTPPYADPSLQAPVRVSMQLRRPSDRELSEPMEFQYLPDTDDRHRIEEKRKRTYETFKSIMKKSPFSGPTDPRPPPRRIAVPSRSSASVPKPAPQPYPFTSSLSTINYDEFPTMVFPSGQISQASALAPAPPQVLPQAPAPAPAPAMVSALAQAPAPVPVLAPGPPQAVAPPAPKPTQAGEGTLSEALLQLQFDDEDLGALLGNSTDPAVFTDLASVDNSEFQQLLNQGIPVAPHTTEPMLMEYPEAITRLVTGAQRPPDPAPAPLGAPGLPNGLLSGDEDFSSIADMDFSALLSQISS

B1: NFκB family member p50 (other, human, UniProt P19838 1-433, looked up)
chain: MAEDDPYLGRPEQMFHLDPSLTHTIFNPEVFQPQMALPTDGPYLQILEQPKQRGFRFRYVCEGPSHGGLPGASSEKNKKSYPQVKICNYVGPAKVIVQLVTNGKNIHLHAHSLVGKHCEDGICTVTAGPKDMVVGFANLGILHVTKKKVFETLEARMTEACIRGYNPGLLVHPDLAYLQAEGGGDRQLGDREKELIRQAALQQTKEMDLSVVRLMFTAFLPDSTGSFTRRLEPVVSDAIYDSKAPNASNLKIVRMDRTAGCVTGGEEIYLLCDKVQKDDIQIRFYEEEENGGVWEGFGDFSPTDVHRQFAIVFKTPKYKDINITKPASVFVQLRRKSDLETSEPKPFLYYPEIKDKEEVQRKRQKLMPNFSDSFGGGSGAGAGGGGMFGSGGGGGGTGSTGPGYSFPHYGFPTYGGITFHPGTTKSNAGMKHG
notes: also called p50 NFκB protein
On to B1, for which the binding result is given as “binds”.
